Substitutions are numbered along the chain they refer to. Numbers in names are those of the source.

Consider 19 molecules from patent US10358672B2, “7-β-hydroxysteroid dehydrogenase mutants and process for the preparation of ursodeoxycholic acid” (Pharmazell GmbH, priority 2014, dated 2019).

B1: 7β-HSDH [R64D]: 7β-HSDH mutant, arginine in position 64 exchanged for aspartic acid (D) (protein, UniProt A4ECA9 1-263, looked up, variant R64D)
7beta-hydroxysteroid …: MNLREKYGEWGLILGATEGVGKAFCEKIAAGGMNVVMVGRREEKLNVLAGEIRETYGVETKVVDADFSQPGAAETVFAATEGLDMGFMSYVACLHSFGKIQDTPWEKHEAMINVNVVTFLKCFHHYMRIFAAQDRGAVINVSSMTGISSSPWNGQYGAGKAFILKMTEAVACECEGTGVDVEVITLGTTLTPSLLSNLPGGPQGEAVMKIALTPEECVDEAFEKLGKELSVIAGQRNKDSVHDWKANHTEDEYIRYMGSFYRD
B2: 7β-HSDH [R64Y]: 7β-HSDH mutant, R in position 64 replaced by Y (protein, UniProt A4ECA9 1-263, looked up, variant R64Y)
7beta-hydroxysteroid …: B1 7beta-hydroxysteroid … with D64Y
B3: 7β-HSDH [R64K]: 7β-HSDH mutant, R in position 64 replaced by K (protein, UniProt A4ECA9 1-263, looked up, variant R64K)
7beta-hydroxysteroid …: B1 7beta-hydroxysteroid … with D64K
B4: 7β-HSDH [R64W]: 7β-HSDH mutant, R in position 64 replaced by W (protein, UniProt A4ECA9 1-263, looked up, variant R64W)
7beta-hydroxysteroid …: B1 7beta-hydroxysteroid … with D64W
B5: 7β-HSDH [R64P]: 7β-HSDH mutant, R in position 64 replaced by P (protein, UniProt A4ECA9 1-263, looked up, variant R64P)
7beta-hydroxysteroid …: B1 7beta-hydroxysteroid … with D64P
B6: 7β-HSDH [R64F]: 7β-HSDH mutant, R in position 64 replaced by F (protein, UniProt A4ECA9 1-263, looked up, variant R64F)
7beta-hydroxysteroid …: B1 7beta-hydroxysteroid … with D64F
B7: 7β-HSDH [R64T]: 7β-HSDH mutant, R in position 64 replaced by T (protein, UniProt A4ECA9 1-263, looked up, variant R64T)
7beta-hydroxysteroid …: B1 7beta-hydroxysteroid … with D64T
B8: 7β-HSDH [R64I]: 7β-HSDH mutant, R in position 64 replaced by I (protein, UniProt A4ECA9 1-263, looked up, variant R64I)
7beta-hydroxysteroid …: B1 7beta-hydroxysteroid … with D64I
B9: 7β-HSDH [R64L]: 7β-HSDH mutant, R in position 64 replaced by L (protein, UniProt A4ECA9 1-263, looked up, variant R64L)
7beta-hydroxysteroid …: B1 7beta-hydroxysteroid … with D64L
B10: 7β-HSDH [R64S]: 7β-HSDH mutant, R in position 64 replaced by S (protein, UniProt A4ECA9 1-263, looked up, variant R64S)
7beta-hydroxysteroid …: B1 7beta-hydroxysteroid … with D64S
B11: 7β-HSDH [R64V]: 7β-HSDH mutant, R in position 64 replaced by V (protein, UniProt A4ECA9 1-263, looked up, variant R64V)
7beta-hydroxysteroid …: B1 7beta-hydroxysteroid … with D64V
B12: 7β-HSDH [R64G]: 7β-HSDH mutant, R in position 64 replaced by G (protein, UniProt A4ECA9 1-263, looked up, variant R64G)
7beta-hydroxysteroid …: B1 7beta-hydroxysteroid … with D64G
B13: 7β-HSDH [R64C]: 7β-HSDH mutant, R in position 64 replaced by C (protein, UniProt A4ECA9 1-263, looked up, variant R64C)
7beta-hydroxysteroid …: B1 7beta-hydroxysteroid … with D64C
B14: 7β-HSDH [R64N]: 7β-HSDH mutant, R in position 64 replaced by N (protein, UniProt A4ECA9 1-263, looked up, variant R64N)
7beta-hydroxysteroid …: B1 7beta-hydroxysteroid … with D64N
B15: 7β-HSDH [R64A]: 7β-HSDH mutant, R in position 64 replaced by A (protein, UniProt A4ECA9 1-263, looked up, variant R64A)
7beta-hydroxysteroid …: B1 7beta-hydroxysteroid … with D64A
B16: 7β-HSDH [T17S]: 7β-HSDH mutant, threonine at position 17 replaced by S (protein, UniProt A4ECA9 1-263, looked up, variant T17S)
7beta-hydroxysteroid …: B1 7beta-hydroxysteroid … with T17S, D64R

For one data set, the target named is 7β-HSDH obtainable from Collinsella aerofaciens DSM 3979 (Collinsella aerofaciens, UniProt A4ECA9).
Chain of 7β-HSDH obtainable from Collinsella aerofaciens DSM 3979 (A4ECA9 whole entry): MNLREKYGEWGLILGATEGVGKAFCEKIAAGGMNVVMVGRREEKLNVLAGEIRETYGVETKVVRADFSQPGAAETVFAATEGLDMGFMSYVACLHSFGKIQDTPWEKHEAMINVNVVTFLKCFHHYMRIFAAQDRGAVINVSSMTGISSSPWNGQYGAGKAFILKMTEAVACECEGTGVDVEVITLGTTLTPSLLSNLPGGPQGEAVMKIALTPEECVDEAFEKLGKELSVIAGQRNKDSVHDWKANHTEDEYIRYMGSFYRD
Experiment: not given
Conditions: cited from earlier work.
With `C[C@H](CCC(=O)O)[C@H]1CC[C@H]2[C@@H]3[C@@H](O)C[C@@H]4C[C@H](O)CC[C@]4(C)[C@H]3CC[C@]12C` [UDCA, Ursodeoxycholic acid], the kcat is on record as 1179.39.

Regarding `C[C@H](CCC(=O)O)[C@H]1CC[C@H]2[C@@H]3C(=O)C[C@@H]4C[C@H](O)CC[C@]4(C)[C@H]3CC[C@]12C` [Mutant 7-Keto-LCA, 7-keto-lithocholic acid], the Vmax is on record as 30.77 U/mg Protein and the kcat was 950.77.

On to `NC(=O)C1=CN([C@@H]2O[C@H](COP(=O)(O)OP(=O)(O)OC[C@H]3O[C@@H](n4cnc5c(N)ncnc54)[C@H](OP(=O)(O)O)[C@@H]3O)[C@@H](O)[C@H]2O)C=CC1` [NADPH], for which the Vmax is on record as 33.44 U/mg Protein and the kcat was 1033.44.

Tested on in another data set: not listed separately
The data set can be described thus: Photometric activity determination of 7β-HSDH and mutants (decrease in absorbance at 340 nm, DHCA reduction with NADPH). The format is biochemical. The conditions noted are these: Table 4, variants modified at position 64; 10 mM DHCA, NADPH, KPi pH 8.0. The protocol:
The activity of the 7β-HSDH and of the mutants was determined using a photometric assay, where the decrease in absorbance was measured at 340 nm over a period of 30 seconds.
The expression [R64E] in the first column of the table means that the arginine (R) in position 64 of the protein sequence had been replaced by glutamic acid (E) in the mutant in question. The respective amino acid is abbreviated using the international one-letter code. Analogously, [R64D] means that an aspartic acid has been introduced at this position.
B1 yielded a Specific activity of 32.1 U/mg and a Volumetric activity of 641.6 U/ml.

Molecule B2 displayed a Specific activity of 9.7 U/mg and a Volumetric activity of 220.3 U/ml.

In turn, B3 came in with a Specific activity of 15.1 U/mg and a Volumetric activity of 296.5 U/ml.

In the case of B4, the Specific activity is listed as 10.1 U/mg and the Volumetric activity was determined as 214 U/ml.

Consider B5, for which the Specific activity came to 19.1 U/mg and the Volumetric activity came to 402.0 U/ml.

In turn, B6 displayed a Specific activity of 10.5 U/mg and a Volumetric activity of 216 U/ml.

For the molecule B7, the Specific activity came out at 27.4 U/mg and the Volumetric activity came out at 450.5 U/ml.

In the case of B8, the Specific activity was 9.83 U/mg and the Volumetric activity worked out at 171 U/ml.

Turning to B9, the Specific activity is given as 20.9 U/mg and the Volumetric activity was 334 U/ml.

As to B10, the Specific activity is 20.1 U/mg and the Volumetric activity is recorded as 333.7 U/ml.

The molecule B11 came in with a Specific activity of 15.1 U/mg and a Volumetric activity of 407.7 U/ml.

As for B12, the Specific activity is 12.36 U/mg and the Volumetric activity is reported as 223 U/ml.

B13: the Specific activity was found to be 14.19 U/mg and the Volumetric activity is 269.7 U/ml.

Take B14: the Specific activity is 0.6 U/mg and the Volumetric activity is recorded as 3.4 U/ml.

With B15, the Specific activity is listed as 13.77 U/mg and the Volumetric activity turned out to be 273 U/ml.

Staying with this data set, now noted: Table 9, variants modified at position 17.
Molecule B16 returned a Specific activity of 17.2 U/mg and a Volumetric activity of 580 U/ml.

The same data set, now with this note: qualitative statement.
Consider B1, for which the “activity compared with the wild-type enzyme” value is “increase in the specific activity”.

As for B7, the “activity compared with the wild-type enzyme” value was “increase in the specific activity”.
